Common to all, as to assay: purified protein
What all share (type): biochemical, Bacillus amyloliquefaciens

Substrate in data set [1]: NC(=O)c1ccc[n+]([C@@H]2O[C@H](COP(=O)(O)OP(=O)(O)OC[C@H]3O[C@@H](n4cnc5c(N)ncnc54)[C@H](O)[C@@H]3O)[C@@H](O)[C@H]2O)c1
The following applies: co-substrate glucose, apparent, pH and temperature of kinetics not stated (default assay Tris-Cl pH 8 or CPB buffer, 37 °C), varied: cofactor.

Substrate in data set [2]: OC[C@H]1O[C@@H](O)[C@H](O)[C@@H](O)[C@@H]1O
The settings on record: with 0.5 mM NADP+, apparent, pH and temperature of kinetics not stated (default assay Tris-Cl pH 8 or CPB buffer, 37 °C).

Substrate in data set [3]: NC(=O)c1ccc[n+]([C@@H]2O[C@H](COP(=O)(O)OP(=O)(O)OC[C@H]3O[C@@H](n4cnc5c(N)ncnc54)[C@H](OP(=O)(O)O)[C@@H]3O)[C@@H](O)[C@H]2O)c1
The settings on record: co-substrate glucose, apparent, pH and temperature of kinetics not stated (default assay Tris-Cl pH 8 or CPB buffer, 37 °C), varied: cofactor.

We go through 1 protein from article PMC4633474, “Kinetic properties and stability of glucose dehydrogenase from Bacillus amyloliquefaciens SB5 and its potential for cofactor regeneration” (AMB Express, 2015).

By Km is commonly meant the substrate concentration at which the rate is half of its maximum. In general, kcat refers to the maximal rate divided by the concentration of active sites.

B1: GluDH-BA (Bacillus amyloliquefaciens) (protein)
chain: MYTDLKGKVVAITGASSGLGKAMAIRFGQEQAKVVVNYYSNEKDAQTVKEEIQKAGGEAVIIQGDVTKEEDVKNIVQTAVKEFGTLDVMINNAGMENPVQSHEMPLKDWNKVINTNLTGAFLGSREAIKYYVENDIQGNVINMSSVHEMIPWPLFVHYAASKGGIKLMTETLALEYAPKRIRVNNIGPGAINTPINAEKFADPVQRKDVESMIPMGYIGEPEEIAAVAVWLASKESSYVTGITLFADGGMTKYPSFQAGRG
notes: full length (261 aa, 28 kDa), 6xHis inserted right after start Met, pET23b, E. coli BL21(DE3), Ni-purified; tag cleavage not mentioned
Take B1: the Km in data set [1] turned out to be 250 ± 30 µM; in data set [2], 5500 ± 280 µM; in data set [3] it was 50 ± 4 µM. Besides, the kcat in data set [2] and in data set [3] was 70 ± 0.3 s⁻¹ throughout.
